Data: patent US11319368B2, “Treatment of hepatotoxicity with IL-11 antibody” (Singapore Health Services PTE LTD., priority 2019, dated 2022)

Assays:
AILI [1] = experiment: X209, NAC or NAC+X209 3 h after APAP in mice
Experimental: Mice were administered anti-IL11Rα (X209) or IgG isotype control antibody at different times and doses, as described above or in the figure legends.
The levels of alanine transaminase (ALT) or aspartate aminotransferase (AST) in mouse serum and hepatocyte supernatant were measured using ALT Activity (ab105134, Abcam) or AST (ab105135, Abcam) Assay Kits. Liver glutathione sulfhydryl (GSH) measurements were performed using Glutathione Colorimetric Detection Kit (EIAGSHC, Thermo Fisher). All colorimetric assays were performed according to the manufacturer's protocol.
Western blots were carried out from hepatocyte and liver tissue lysates. Hepatocytes and tissues were homogenized in radioimmunoprecipitation assay (RIPA) buffer containing protease and phosphatase inhibitors (Thermo Fisher), followed by centrifugation to clear the lysate. Protein concentrations were determined by Bradford assay (Bio-Rad). Equal amounts of protein lysates were separated by SDS-PAGE, transferred to PVDF membrane, and subjected to immunoblot analysis for the indicated primary antibodies. Proteins were visualized using the ECL detection system (Pierce) with the appropriate secondary antibodies.

[2] = tested on: rheumatoid synovial cells; settings: cited from earlier work
human hepatocytes [3] = settings: 0.2 mM H2O2, 24 hours
Experimental: Human hepatocytes (5200, ScienCell) were grown and maintained at 37° C. and 5% CO2. Hepatocyte medium (5201, ScienCell) supplemented with 2% fetal bovine serum and 1% Penicillin-streptomycin was renewed every 2-3 days and cells were passaged at 80% confluence using standard trypsinization techniques. All the experiments were carried out at low cell passage (P2-P3) and cells were serum-starved for 16 hours prior to respective stimulations (24 hours) that were performed in serum-free hepatocyte media. Stimulated cells were compared to unstimulated cells that have been grown for the same duration under the same conditions (serum-free hepatocyte media), but without the stimuli. […] The levels of IL-11 in mouse serum and hepatocyte supernatant were quantified using Mouse IL-11 DuoSet (DY418 and DY008, R&D Systems) and Human IL-11 Quantikine ELISA kit [MUT], R&D Systems), respectively, according to the manufacturer's protocol.

[4] = tested on: APAP overdose acute liver injury; experiment: Severe APAP overdose in mice, anti-IL11 antibody (X203) 16 h before; format: in vivo, mouse; settings: 20 mg/kg IP 16 hours before APAP 400 mg/kg; 24 hours after APAP
liver = settings: single subcutaneous injection 500 μg kg^-1
Experimental: (A) Effect of recombinant human IL11 (rhIL11, 10 ng ml^−1) or recombinant mouse IL11 (rmIL11, 10 ng ml^−1) on ERK, JNK and CASP3 activation status in mouse hepatocytes. (B) ALT levels in mouse hepatocyte supernatant following stimulation by rmIL11 (10 ng ml^−1) or by increasing doses of rhIL11 (1, 5, 10, 15 and 20 ng ml^−1). (C) Schematic of mice receiving a single subcutaneous injection of either saline, rhIL11, or rmIl11 (500 μg kg^−1). (D) Western blot analysis of hepatic p-ERK, p-JNK, and Cl. […] Dose-dependent inhibition effect of rhIL11 on rmIL11-induced (K) ALT secretion and (L) CASP3 activation by mouse hepatocytes. (A, B, K, L) 24 h. (B, K) Data are shown as mean±SD; (E, G) Data are shown as box-and-whisker with median (middle line), 25th-75th percentiles (box), and minimum-maximum values (whiskers). (B, K) Two-tailed, Tukey-corrected Student's t-test; (E) two-tailed Student's t-test; (G) two-tailed Dunnett's test.
The levels of alanine transaminase (ALT) or aspartate aminotransferase (AST) in mouse serum and hepatocyte supernatant were measured using ALT Activity (ab105134, Abcam) or AST (ab105135, Abcam) Assay Kits. […] All colorimetric assays were performed according to the manufacturer's protocol.
Western blots were carried out from hepatocyte and liver tissue lysates. […] Protein concentrations were determined by Bradford assay (Bio-Rad). […]

human hepatocytes [5] = experiment: rhIL11 versus rmIL11 on human hepatocytes; format: cell-based; settings: 10 ng ml^-1
AILI [6] = experiment: rhIL11 or rmIL11 injection in APAP OD mice; format: in vivo, mouse
Experimental: FIGS. 10A to 10L. […] (A, B, K, L) 24 h. […] FC: fold change

mouse hepatocytes = experiment: rhIL11 versus rmIL11 on mouse hepatocytes; format: cell-based
Description: Mouse hepatocytes (ABC-TC3928, AcceGen Biotech) were maintained in mouse hepatocyte medium (ABC-TM3928, AcceGen Biotech) supplemented with 1% Penicillin-streptomycin.

[7] = tested on: primary human hepatocytes; experiment: hyperIL11 or hyperIL6 stimulation of primary human hepatocytes, with or without sgp130; format: cell-based
[8] = tested on: primary human hepatocytes; experiment: IL11 stimulation of primary human hepatocytes with sgp130 or sIL11Rα; format: cell-based; settings: for effect on IL11-induced hepatocyte death and signaling: IL11 20 ng/ml, sgp130, sIL11Rα 1 μg/ml; for effect on ALT release from IL11-stimulated hepatocytes: increasing doses
kidney = settings: 100-1000 μg/kg, IP; 10 minutes prior to or 30-60 minutes following IR; cited from earlier work

In the case of `CC(=O)N[C@@H](CS)C(=O)O` [NAC, N-acetyl-cysteine, reference compound], the ALT reduction (AILI [1]; 3 h after APAP, NAC 500 mg kg^-1, X209 5 mg kg^-1) is reported as 38% and the “serum levels of ALT and AST” value (AILI [1]; NAC 500 mg kg^-1 3 h after APAP) is reported as “reduced serum levels of ALT and AST”.

In the case of `COc1ccc2c(c1)c(CC(=O)O)c(C)n2C(=O)c1ccc(Cl)cc1` [indomethacin, reference compound], the “expression of IL-11” value [2] is given as “reduction in the expression of IL-11”.

In the case of `OO` [H2O2, hydrogen peroxide], the “IL-11 upregulated in the supernatant” value (human hepatocytes [3]) is reported as 10 fold.

For “interferon-gamma: interferon-gamma (IFNγ)”, the “expression of IL-11” value [2] is given as “reduction in the expression of IL-11”.

B1: X203: antagonist anti-IL11 antibody (Ng et al., Sci Transl Med. 2019) (antibody, V domains shown)
VH: EVQLQQSGPELVKPGASVKIPCKASGYTFTDYNMDWVKQSHGKSLEWIGDINPHNGGPIYNQKFTGKATLTVDKSSSTAYMELRSLTSEDTAVYYCARGELGHWYFDVWGTGTTVTVSS
VL: DIVLTQSPASLAVSLGQRATISCRASKSVSTSGYSYIHWYQQKPGQPPKLLIYLASNLDSGVPARFSGSGSGTDFTLNIHPVEEEDAATYYCQHSRDLPPTFGGGTKLEIK
With B1 the “serum ALT levels” value [4] was “substantial reduction” and the “serum AST levels” value [4] was “substantial reduction”.

B2: rmIL11: recombinant mouse IL11 (UniProtKB: P47873, Genscript) (protein)
chain: PGPPAGSPRVSSDPRADLDSAVLLTRSLLADTRQLAAQMRDKFPADGDHSLDSLPTLAMSAGTLGSLQLPGVLTRLRVDLMSYLRHVQWLRRAGGPSLKTLEPELGALQARLERLLRRLQLLMSRLALPQAAPDQPVIPLGPPASAWGSIRAAHAILGGLHLTLDWAVRGLLLLKTRL
With B2 the “hepatic ERK and JNK phosphorylation” value (liver) was “gradual ERK and immediate JNK activation”, the “ERK and JNK signaling and hepatocyte death” value (human hepatocytes [5]) was “did not” and the “hepatic GSH levels after APAP” value (AILI [6]; APAP injury) was “did not”. For the same molecule, the “protection against AILI” value (AILI [6]; subcutaneous injection, APAP OD) was “not protective”, the “ERK and JNK phosphorylation, CASP3 cleavage” value (mouse hepatocytes; 10 ng ml^-1, 24 h) was “stimulated ERK and JNK phosphorylation and induced CASP3 cleavage” and the “mouse hepatocyte cell death (ALT in supernatant)” value (mouse hepatocytes; 24 h) was “induced mouse hepatocyte cell death”.

B3: HyperIL11: IL11Rα:IL11 fusion protein which mimics the trans-signalling complex (SEQ ID NO:21) (protein)
chain: MSSSCSGLSRVLVAVATALVSASSPCPQAWGPPGVQYGQPGRSVKLCCPGVTAGDPVSWFRDGEPKLLQGPDSGLGHELVLAQADSTDEGTYICQTLDGALGGTVTLQLGYPPARPVVSCQAADYENFSCTWSPSQISGLPTRYLTSYRKKTVLGADSQRRSPSTGPWPCPQDPLGAARCVVHGAEFWSQYRINVTEVNPLGASTRLLDVSLQSILRPDPPQGLRVESVPGYPRRLRASWTYPASWPCQPHFLLKFRLQYRPAQHPAWSTVEPAGLEEVITDAVAGLPHAVRVSARDFLDAGTWSTWSPEAWGTPSTGPAGQSGGGGGSGGGSGGGSVPGPPPGPPRVSPDPRAELDSTVLLTRSLLADTRQLAAQLRDKFPADGDHNLDSLPTLAMSAGALGALQLPGVLTRLRADLLSYLRHVQWLRRAGGSSLKTLEPELGTLQARLDRLLRRLQLLMSRLALPQPPPDPPAPPLAPPSSAWGGIRAAHAILGGLHLTLDWAVRGLLLLKTRL
modifications: Hyper IL-11 (IL-11RAIL-11 fusion)
With B3 the “ERK and JNK activation” value ([7]; 2.5 ng/ml to 20 ng/ml, 24 h) was “activated ERK and JNK in a dose-dependent manner” and the “alanine transaminase (ALT) in the media” value ([7]; dose range, 24 h) was “dose-dependent increase in alanine transaminase (ALT)”.

B4: sgp130: human soluble gp130 Fc, inhibitor of trans-signaling complexes acting through gp130 (protein)
chain: ELLDPCGYISPESPVVQLHSNFTAVCVLKEKCMDYFHVNANYIVWKTNHFTIPKEQYTIINRTASSVTFTDIASLNIQLTCNILTFGQLEQNVYGITIISGLPPEKPKNLSCIVNEGKKMRCEWDGGRETHLETNFTLKSEWATHKFADCKAKRDTPTSCTVDYSTVYFVNIEVWVEAENALGKVTSDHINFDPVYKVKPNPPHNLSVINSEELSSILKLTWTNPSIKSVIILKYNIQYRTKDASTWSQIPPEDTASTRSSFTVQDLKPFTEYVFRIRCMKEDGKGYWSDWSEEASGITYEDRPSKAPSFWYKIDPSHTQGYRTVQLVWKTLPPFEANGKILDYEVTLTRWKSHLQNYTVNATKLTVNLTNDRYLATLTVRNLVGKSDAAVLTIPACDFQATHPVMDLKAFPKDNMLWVEWTTPRESVKKYILEWCVLSDKAPCITDWQQEDGTVHRTYLRGNLAESKCYLITVTPVYADGPGSPESIKAYLKQAPPSKGPTVRTKKVGKNEAVLEWDQLPVDVQNGFIRNYTIFYRTIIGNETAVNVDSSHTEYTLSSLTSDTLYMVRMAAYTDEGGKDGPEFTFTTPKFAQGEIE
modifications: left off: a dimerising Fc or GST
In the case of B4, the “hepatotoxic effects of hyperIL11 (ALT)” value ([7]; increasing amounts of sgp130) is reported as “inhibited the hepatotoxic effects of hyperIL11”, the “signaling pathways downstream of hyperIL11 and hyperIL6” value ([7]; sgp130 with hyperIL11 or hyperIL6 20 ng/ml) is reported as “blocked the activation of signaling pathways downstream of both hyperIL11 (p-ERK/p-JNK) and hyperIL6 (p-STAT3)” and the “effect on IL11-induced hepatocyte death and signaling” value [8] is reported as “unaffected”. The “effect on ALT release from IL11-stimulated hepatocytes” value [8] was “no effect on ALT release”.

B5: sIL11Rα: soluble IL11Rα (human IL11Rα, R&D systems) (protein, UniProt Q14626 24-370, looked up)
extracellular domain: SPCPQAWGPPGVQYGQPGRSVKLCCPGVTAGDPVSWFRDGEPKLLQGPDSGLGHELVLAQADSTDEGTYICQTLDGALGGTVTLQLGYPPARPVVSCQAADYENFSCTWSPSQISGLPTRYLTSYRKKTVLGADSQRRSPSTGPWPCPQDPLGAARCVVHGAEFWSQYRINVTEVNPLGASTRLLDVSLQSILRPDPPQGLRVESVPGYPRRLRASWTYPASWPCQPHFLLKFRLQYRPAQHPAWSTVEPAGLEEVITDAVAGLPHAVRVSARDFLDAGTWSTWSPEAWGTPSTGTIPKEIPAWGQLHTQPEVEPQVDSPAPPRPSLQPHPRLLDHRDSVEQVAVLA
modifications: extracellular domain
For B5, the “effect on IL11-induced hepatocyte death and signaling” value [8] was “unaffected” and the “effect on ALT release from IL11-stimulated hepatocytes” value [8] was “no effect on ALT release”.

B6: PEGylated rhIL11: PEGylated rhIL11 (Lee et al. 2012) (conjugate, UniProt P20809 22-199, looked up)
Interleukin-11: PGPPPGPPRVSPDPRAELDSTVLLTRSLLADTRQLAAQLRDKFPADGDHNLDSLPTLAMSAGALGALQLPGVLTRLRADLLSYLRHVQWLRRAGGSSLKTLEPELGTLQARLDRLLRRLQLLMSRLALPQPPPDPPAPPLAPPSSAWGGIRAAHAILGGLHLTLDWAVRGLLLLKTRL
modifications: PEG
In the case of B6, the renoprotection (kidney) is given as “The authors conclude that IL11 is renoprotective based on pre-”.
